Experiments:
[1] = target: Recombinant soluble murine αMβ2 integrin (R&D Systems) (murine) (UniProt P05555); experiment: ELISA, murine αMβ2 integrin coated, ACT serially diluted, with calcium, rabbit anti-ACT detection
[2] = target: αMβ2 integrin on J774A.1 murine macrophage cells (murine) (UniProt P05555); experiment: flow cytometry: biotinylated ACT on J774A.1 cells on ice, no scAb, detected with streptavidin-PE; background: cells only 274, non-biotinylated ACT 292
[3] = target: Recombinant soluble murine αMβ2 integrin (R&D Systems) (murine) (UniProt P05555); experiment: ELISA, murine αMβ2 integrin coated, domain serially diluted, with calcium, rabbit anti-ACT detection

In the case of “Bordetella adenylate cyclase toxin (ACT), full-length, acylated (from UniProt J7QLC0 1-1706)”, the EC50 [1] is reported as 20 nM and the mean fluorescence (PE-A) [2] is reported as 4810.
Substance “RTX751*, RTX domain of ACT, residues 751-1706, acylated (from UniProt J7QLC0 751-1706)” has an EC50 [3] of 20 nM.
